{"source": "patent US20150291667A1", "proteins": {"B1": {"name": "CdtB/DNase I hybrid protein (protein)", "chain": "NLSDFKVATWNLQGSSAVNESKWNINVRQLLSGEQGADILMVQEAGSLPSSAVRTSRVIQHGGTPIEEYTWNLGTRSRPNMVYIYYSRLDVGANRVNLAIVSRRQADEAFIVHSDSSVLQSRPAVGIRIGTDVFFTVHAAPGDAVAEIDALYDVYLDVQEKWGLEDVMLMGDFNAGCSYVRPSQWSSIRLWTSPTFQWLIPDSADTTATPTHCAYDRIVVAGMLLRGAVVPDSALPFNFQAANGLSDQLAQAISDHYPVEVMLKHHHHHHHMLEDPAANKAQKK"}}, "biological_target": "T1, CdtA-CdtC heterodimer", "T1 chain 1": "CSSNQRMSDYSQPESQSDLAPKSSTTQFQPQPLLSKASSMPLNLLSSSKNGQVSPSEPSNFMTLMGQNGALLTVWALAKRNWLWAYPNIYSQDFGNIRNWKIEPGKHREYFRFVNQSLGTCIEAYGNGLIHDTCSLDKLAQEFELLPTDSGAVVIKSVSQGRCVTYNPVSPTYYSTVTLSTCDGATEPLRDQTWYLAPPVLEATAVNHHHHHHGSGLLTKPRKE", "T1 chain 2": "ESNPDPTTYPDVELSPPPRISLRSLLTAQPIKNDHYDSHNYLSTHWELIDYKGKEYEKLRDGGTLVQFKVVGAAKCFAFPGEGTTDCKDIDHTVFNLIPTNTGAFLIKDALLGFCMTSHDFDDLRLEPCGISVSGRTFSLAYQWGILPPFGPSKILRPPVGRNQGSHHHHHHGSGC"}
{"protein": "B1", "values": [{"measurement": "DNA nicking activity of reconstituted heterotrimer preparations (subunit protection)", "result": "reconstituted heterotrimer preparations containing the CdtB/DNase I hybrid protein failed to convert supercoiled DNA to linear and relaxed forms"}]}
